Results published in paper PMC12214019, “Mechanistic insights into direct DNA and RNA strand transfer and dynamic protein exchange of SSB and RPA”.

Legend:
RPA (yeast) [1] = target: T1, RPA (yeast) (Saccharomyces cerevisiae, UniProt P22336;P26754;P26755 1-621;1-273;1-122); test: competition (smFRET strand transfer); from dT40-RPA, 100 mM NaCl; 8.6±0.3e4 M-1 s-1; 10 mM Tris-HCl pH 7.5, 100 or 300 mM NaCl, 10% glycerol, 10 mM Trolox, 0.5% glucose, glucose oxidase/catalase, ~23 C; conditions: protein: recombinant; copies: 1;1;1
T1 sequence (P22336 whole entry, chain 1 of 3): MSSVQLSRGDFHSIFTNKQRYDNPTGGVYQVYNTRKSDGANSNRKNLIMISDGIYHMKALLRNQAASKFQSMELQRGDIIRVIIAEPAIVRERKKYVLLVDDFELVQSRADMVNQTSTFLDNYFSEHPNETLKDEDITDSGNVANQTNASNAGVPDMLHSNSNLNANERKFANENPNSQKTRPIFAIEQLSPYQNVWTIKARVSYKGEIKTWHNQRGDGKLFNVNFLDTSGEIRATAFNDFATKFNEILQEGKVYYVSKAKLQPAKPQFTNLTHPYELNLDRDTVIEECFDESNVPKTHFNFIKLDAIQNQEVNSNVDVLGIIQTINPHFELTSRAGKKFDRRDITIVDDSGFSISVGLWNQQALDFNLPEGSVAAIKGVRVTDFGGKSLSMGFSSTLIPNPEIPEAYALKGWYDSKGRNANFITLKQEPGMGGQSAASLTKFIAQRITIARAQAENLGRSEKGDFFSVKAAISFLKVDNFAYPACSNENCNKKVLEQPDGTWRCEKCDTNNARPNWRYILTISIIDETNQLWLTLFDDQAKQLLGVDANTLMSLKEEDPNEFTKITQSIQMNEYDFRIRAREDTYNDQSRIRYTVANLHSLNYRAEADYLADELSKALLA
T1 sequence (P26754 whole entry, chain 2 of 3): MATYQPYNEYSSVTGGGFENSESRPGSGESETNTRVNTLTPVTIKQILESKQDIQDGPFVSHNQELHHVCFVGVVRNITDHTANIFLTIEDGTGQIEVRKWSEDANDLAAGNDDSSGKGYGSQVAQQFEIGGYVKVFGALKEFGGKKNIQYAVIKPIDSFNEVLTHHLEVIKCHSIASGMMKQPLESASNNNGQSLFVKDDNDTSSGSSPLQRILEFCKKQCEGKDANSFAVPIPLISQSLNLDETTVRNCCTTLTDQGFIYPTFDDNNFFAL
T1 sequence (P26755 whole entry, chain 3 of 3): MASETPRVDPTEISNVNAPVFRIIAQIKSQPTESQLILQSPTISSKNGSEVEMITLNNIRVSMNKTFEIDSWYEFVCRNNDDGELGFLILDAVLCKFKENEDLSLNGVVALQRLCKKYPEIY

SSB [2] = target: T2, SSB (UniProt P0AGE0 2-178); test: competition (smFRET strand transfer); from dT40-SSB, 100 mM NaCl; 9.8±0.2e4 M-1 s-1; 10 mM Tris-HCl pH 7.5, 100 or 300 mM NaCl, 10% glycerol, 10 mM Trolox, 0.5% glucose, glucose oxidase/catalase, ~23 C; conditions: protein: recombinant; chain copies: 4
T2 sequence (P0AGE0 2-178): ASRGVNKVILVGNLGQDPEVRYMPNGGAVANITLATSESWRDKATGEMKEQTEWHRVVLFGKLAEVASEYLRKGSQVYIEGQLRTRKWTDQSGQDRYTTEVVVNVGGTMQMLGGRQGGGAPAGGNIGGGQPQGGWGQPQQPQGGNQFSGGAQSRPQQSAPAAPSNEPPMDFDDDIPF

hRPA = hRPA (Homo sapiens, UniProt P27694;P15927;P35244 1-616;1-270;1-121); test: competition (smFRET strand transfer); from dT40-hRPA, 100 mM NaCl; 8.3±0.6e4 M-1 s-1; 10 mM Tris-HCl pH 7.5, 100 or 300 mM NaCl, 10% glycerol, 10 mM Trolox, 0.5% glucose, glucose oxidase/catalase, ~23 C; conditions: protein: recombinant; copies: 1;1;1
Chain of hRPA (P27694 whole entry, chain 1 of 3): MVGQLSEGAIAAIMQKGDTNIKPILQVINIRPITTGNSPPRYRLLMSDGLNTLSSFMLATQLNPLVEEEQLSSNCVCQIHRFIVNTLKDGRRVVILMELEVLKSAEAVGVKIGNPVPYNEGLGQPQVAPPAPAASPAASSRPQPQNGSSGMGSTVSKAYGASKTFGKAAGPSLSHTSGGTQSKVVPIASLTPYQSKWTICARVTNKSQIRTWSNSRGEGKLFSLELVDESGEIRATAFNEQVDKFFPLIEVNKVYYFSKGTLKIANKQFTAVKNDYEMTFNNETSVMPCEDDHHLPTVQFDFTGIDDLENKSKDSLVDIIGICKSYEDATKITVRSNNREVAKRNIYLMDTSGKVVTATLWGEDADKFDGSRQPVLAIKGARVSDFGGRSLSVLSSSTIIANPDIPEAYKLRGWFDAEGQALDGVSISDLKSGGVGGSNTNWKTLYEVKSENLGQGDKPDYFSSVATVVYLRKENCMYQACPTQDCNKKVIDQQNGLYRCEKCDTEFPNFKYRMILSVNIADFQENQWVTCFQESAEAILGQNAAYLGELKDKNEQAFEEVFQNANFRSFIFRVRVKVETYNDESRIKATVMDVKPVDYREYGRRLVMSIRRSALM
Chain of hRPA (P15927 whole entry, chain 2 of 3): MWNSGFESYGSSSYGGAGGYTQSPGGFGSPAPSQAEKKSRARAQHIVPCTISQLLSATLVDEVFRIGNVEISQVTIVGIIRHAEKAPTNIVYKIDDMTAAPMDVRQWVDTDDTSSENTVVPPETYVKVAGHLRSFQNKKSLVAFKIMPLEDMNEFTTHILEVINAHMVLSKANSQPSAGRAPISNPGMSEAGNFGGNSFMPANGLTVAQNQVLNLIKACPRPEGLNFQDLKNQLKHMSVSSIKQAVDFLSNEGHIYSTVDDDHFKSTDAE
Chain of hRPA (P35244 whole entry, chain 3 of 3): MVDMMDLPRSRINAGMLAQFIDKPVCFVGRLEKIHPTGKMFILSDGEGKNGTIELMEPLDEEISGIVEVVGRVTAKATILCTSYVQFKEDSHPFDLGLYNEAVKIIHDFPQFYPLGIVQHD

RPA (yeast) [3] = target: T1, RPA (yeast); test: single-molecule FRET; 3 nM, ternary intermediate with dT40-RPA, dwell ~0.27 s, 100 mM NaCl; 10 mM Tris-HCl pH 7.5, 100 or 300 mM NaCl, 10% glycerol, 10 mM Trolox, 0.5% glucose, glucose oxidase/catalase, ~23 C; conditions: protein: recombinant; copies: 1;1;1; label: 3' Cy3
SSB [4] = target: T2, SSB; test: single-molecule FRET; 3 nM, ternary intermediate with dT40-SSB, dwell ~0.31 s, 100 mM NaCl; 10 mM Tris-HCl pH 7.5, 100 or 300 mM NaCl, 10% glycerol, 10 mM Trolox, 0.5% glucose, glucose oxidase/catalase, ~23 C; conditions: protein: recombinant; chain copies: 4; label: 3' Cy3
RPA (yeast) [5] = target: T1, RPA (yeast); test: competition (smFRET strand transfer); from U50-RPA, 100 mM NaCl; 4.3±0.4e5 M-1 s-1; 10 mM Tris-HCl pH 7.5, 100 or 300 mM NaCl, 10% glycerol, 10 mM Trolox, 0.5% glucose, glucose oxidase/catalase, ~23 C; conditions: protein: recombinant; copies: 1;1;1
SSB [6] = target: T2, SSB; test: competition (smFRET strand transfer); from U50-SSB, 100 mM NaCl; 2.1±0.2e5 M-1 s-1; 10 mM Tris-HCl pH 7.5, 100 or 300 mM NaCl, 10% glycerol, 10 mM Trolox, 0.5% glucose, glucose oxidase/catalase, ~23 C; conditions: protein: recombinant; chain copies: 4
RPA (yeast) [7] = target: T1, RPA (yeast); test: competition (smFRET strand transfer); from dT70-RPA, 100 mM NaCl; 9.1±0.4e4 M-1 s-1; 10 mM Tris-HCl pH 7.5, 100 or 300 mM NaCl, 10% glycerol, 10 mM Trolox, 0.5% glucose, glucose oxidase/catalase, ~23 C; conditions: protein: recombinant; copies: 1;1;1
SSB [8] = target: T2, SSB; test: competition (smFRET strand transfer); from dT70-SSB, 300 mM NaCl; 6.1±0.1e4 M-1 s-1; 10 mM Tris-HCl pH 7.5, 100 or 300 mM NaCl, 10% glycerol, 10 mM Trolox, 0.5% glucose, glucose oxidase/catalase, ~23 C; conditions: protein: recombinant; chain copies: 4
RPA (yeast) [9] = target: T1, RPA (yeast); test: competition (smFRET strand transfer); 100 nM competitor from dT40-RPA; rate jumps between dT20 and dT30; 10 mM Tris-HCl pH 7.5, 100 or 300 mM NaCl, 10% glycerol, 10 mM Trolox, 0.5% glucose, glucose oxidase/catalase, ~23 C; conditions: protein: recombinant; copies: 1;1;1

B1: dT40 (ssDNA)
DNA: TTTTTTTTTTTTTTTTTTTTTTTTTTTTTTTTTTTTTTTT
B1: binds (RPA (yeast) [1]); binds (SSB [2]); binds (hRPA).

B2: dT40-Cy3 (ssDNA)
DNA: TTTTTTTTTTTTTTTTTTTTTTTTTTTTTTTTTTTTTTTT
B2: binds (RPA (yeast) [3]); binds (SSB [4]).

B3: U50 (ssRNA)
RNA: UUUUUUUUUUUUUUUUUUUUUUUUUUUUUUUUUUUUUUUUUUUUUUUUUU
B3: binds (RPA (yeast) [5]); binds (SSB [6]).

B4: dT60 (ssDNA)
DNA: TTTTTTTTTTTTTTTTTTTTTTTTTTTTTTTTTTTTTTTTTTTTTTTTTTTTTTTTTTTT
B4: binds (RPA (yeast) [7]); binds (SSB [8]).

B5: dT30 (ssDNA)
DNA: TTTTTTTTTTTTTTTTTTTTTTTTTTTTTT
B5: binds (RPA (yeast) [9]).
